T1: Smc6 (Walker B mutant E1048Q) (S. cerevisiae, UniProt Q12749 1-1114, E1048Q, BS3-crosslinked within the holo-complex)
T1 sequence: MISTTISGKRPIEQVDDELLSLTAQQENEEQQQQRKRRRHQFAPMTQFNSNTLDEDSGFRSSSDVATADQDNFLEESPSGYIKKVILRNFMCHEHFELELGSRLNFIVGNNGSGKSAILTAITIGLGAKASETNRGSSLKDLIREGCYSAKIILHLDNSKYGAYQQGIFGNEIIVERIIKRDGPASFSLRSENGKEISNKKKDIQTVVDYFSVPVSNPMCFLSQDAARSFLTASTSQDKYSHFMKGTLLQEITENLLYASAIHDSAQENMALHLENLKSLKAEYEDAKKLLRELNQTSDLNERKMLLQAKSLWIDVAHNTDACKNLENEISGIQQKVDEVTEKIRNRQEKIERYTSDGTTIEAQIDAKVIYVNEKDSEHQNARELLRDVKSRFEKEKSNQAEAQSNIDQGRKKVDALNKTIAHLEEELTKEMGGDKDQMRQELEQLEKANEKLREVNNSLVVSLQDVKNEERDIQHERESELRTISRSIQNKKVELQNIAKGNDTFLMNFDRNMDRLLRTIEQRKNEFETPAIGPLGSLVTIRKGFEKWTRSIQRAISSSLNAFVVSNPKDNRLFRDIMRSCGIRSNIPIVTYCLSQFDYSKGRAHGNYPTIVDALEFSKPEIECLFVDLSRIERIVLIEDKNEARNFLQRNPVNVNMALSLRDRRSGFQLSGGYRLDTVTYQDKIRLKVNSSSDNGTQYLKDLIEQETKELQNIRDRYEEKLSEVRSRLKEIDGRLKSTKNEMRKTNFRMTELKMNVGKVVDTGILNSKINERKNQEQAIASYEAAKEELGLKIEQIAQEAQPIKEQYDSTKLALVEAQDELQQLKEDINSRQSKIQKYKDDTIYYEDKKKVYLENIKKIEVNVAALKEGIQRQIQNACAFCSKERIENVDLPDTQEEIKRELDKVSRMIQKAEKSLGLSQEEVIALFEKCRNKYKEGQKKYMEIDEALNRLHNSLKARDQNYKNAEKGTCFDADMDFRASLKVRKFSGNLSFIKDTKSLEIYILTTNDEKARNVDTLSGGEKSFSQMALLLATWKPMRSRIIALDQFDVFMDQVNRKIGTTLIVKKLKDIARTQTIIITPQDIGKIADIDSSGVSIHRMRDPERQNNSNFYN

B1: Smc5 (Walker B mutant E1015Q) (natural protein, S. cerevisiae)
chain: MTSLIDLGRYVERTHHGEDTEPRSKRVKIAKPDLSSFQPGSIIKIRLQDFVTYTLTEFNLSPSLNMIIGPNGSGKSTFVCAVCLGLAGKPEYIGRSKKVEDFIKNGQDVSKIEITLKNSPNVTDIEYIDARDETIKITRIITRSKRRSDYLINDYQVSESVVKTLVAQLNIQLDNLCQFLSQERVEEFARLKSVKLLVETIRSIDASLLDVLDELRELQGNEQSLQKDLDFKKAKIVHLRQESDKLRKSVESLRDFQNKKGEIELHSQLLPYVKVKDHKEKLNIYKEEYERAKANLRAILKDKKPFANTKKTLENQVEELTEKCSLKTDEFLKAKEKINEIFEKLNTIRDEVIKKKNQNEYYRGRTKKLQATIISTKEDFLRSQEILAQTHLPEKSVFEDIDIKRKEIINKEGEIRDLISEIDAKANAINHEMRSIQRQAESKTKSLTTTDKIGILNQDQDLKEVRDAVLMVREHPEMKDKILEPPIMTVSAINAQFAAYLAQCVDYNTSKALTVVDSDSYKLFANPILDKFKVNLRELSSADTTPPVPAETVRDLGFEGYLSDFITGDKRVMKMLCQTSKIHTIPVSRRELTPAQIKKLITPRPNGKILFKRIIHGNRLVDIKQSAYGSKQVFPTDVSIKQTNFYQGSIMSNEQKIRIENEIINLKNEYNDRKSTLDALSNQKSGYRHELSELASKNDDINREAHQLNEIRKKYTMRKSTIETLREKLDQLKREARKDVSQKIKDIDDQIQQLLLKQRHLLSKMASSMKSLKNCQKELISTQILQFEAQNMDVSMNDVIGFFNEREADLKSQYEDKKKFVKEMRDTPEFQSWMREIRSYDQDTKEKLNKVAEKYEEEGNFNLSFVQDVLDKLESEIAMVNHDESAVTILDQVTAELRELEHTVPQQSKDLETIKAKLKEDHAVLEPKLDDIVSKISARFARLFNNVGSAGAVRLEKPKDYAEWKIEIMVKFRDNAPLKKLDSHTQSGGERAVSTVLYMIALQEFTSAPFRVVDQINQGMDSRNERIVHKAMVENACAENTSQYFLITPKLLTGLHYHEKMRIHCVMAGSWIPNPSEDPKMIHFGETSNYSFD
modifications: BS3-crosslinked within the holo-complex
B2: Nse2 (Mms21) (natural protein, S. cerevisiae)
chain: ALNDNPIPKSVPLHPKSGKYFHNLHARDLSNIYQQCYKQIDETINQLVDSTSPSTIGIEEQVADITSTYKLLSTYESESNSFDEHIKDLKKNFKQSSDACPQIDLSTWDKYRTGELTAPKLSELYLNMPTPEPATMVNNTDTLKILKVLPYIWNDPTCVIPDLQNPADEDDLQIEGGKIELTCPITCKPYEAPLISRKCNHVFDRDGIQNYLQGYTTRDCPQAACSQVVSMRDFVRDPIMELRCKIAKMKESQEQDKRSSQAIDVL
modifications: BS3-crosslinked within the holo-complex
B3: Nse1 (natural protein, S. cerevisiae)
chain: MEVHEEQVSAPVTGDATAKYLLQYILSARGICHENALILALMRLETDASTLNTEWSIQQWVDKLNDYINAINVKLNLLGYKIIRINHGIGRNAVTLKAKQNFESFEDNTAIRAHNNDYAVLQSIVLPESNRFFVYVNLASTEETKLATRFNQNEIEFMKWAIEQFMISGETIVEGPALETSIIVKEVNRILVAATGDSNLAKWRKFSTFTVGSTNLFQFQELTATDIEDLLLRLCELKWFYRTQEGKFGIDLRCIAELEEYLTSMYNLNTCQNCHKLAIQGVRCGNESCREENEETGENSLSQIWHVDCFKHYITHVSKNCDRCGSSLITEGVYVI
modifications: BS3-crosslinked within the holo-complex
B4: Nse4 (HALO-tagged) (natural protein, S. cerevisiae)
chain: MSSTVISRKRRNSTVTEPDSSGETRKQKKSRSDEKSSSSKDGDPQLEFKVLQGYRDLESEMHKGRAQVTRTGDIGVAMDNLNAVDSLFNKVIGIKNNGLFAHDARAMVSISELAQISVRNLKFDDSRSMVNLENIVNSLKRYMLKEHFKLNNIAENRNDLTLAADEQSAADQQEESDGDIDRTPDDNHTDKATSSFKATSMRHSYLQQFSHYNEFSQFNWFRIGALYNTISKNAPITDHLMGPLSIEKKPRVLTQRRRNNDQVGEKITAEKITQHSLNSTQQETTPEQVKKCFKKLSKKLGPEGSINLFKFIIDPNSFSRSIENLFYTSFLIKEGKLLMEHDEEGLPTIKIKQSISHTDSRSKEIERQRRRAAHQNHIIFQMDMPTWRKLIKKYNITSPFLD
modifications: BS3-crosslinked within the holo-complex

How the values were obtained:
Assay in all cases: cryo-EM structure
[1] = biological target: T1, Smc6 (Walker B mutant E1048Q)
[2] = biological target: B1
Nse4 (HALO-tagged) = biological target: B4

Binder	binding result [1]	binding result [2]	binding result (Nse4 (HALO-tagged))
B1	binds		
B2	binds	binds	
B3		binds	binds
B4	binds	binds	
